Experimental findings from the nanobody polyreactivity screen of Harvey et al. (2022) are described below.

This series is described as follows: yeast display, Sf9 membrane polyspecificity reagent, FACS + sequencing; frameworks hold sequencing errors. In a few lines: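 Galactose-induced (36–48 hours) yeast carrying a synthetic nanobody display library were exposed to 10% biotinylated, detergent-solubilized Sf9 membrane reagent at 4 °C for 1 hour. FACS followed streptavidin microbead enrichment, using low and high (top ~1%) gates for expression (anti-HA) and reagent binding (streptavidin). Colony PCR, MiSeq 2 × 250 sequencing and CDR-length filtering followed. Labels for polyreactivity reflect the gate of origin.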
In the case of “QVQLVESGGGLVQAGGSLRLTCAASGYIFNRNAMGWYRQAPGKERELVAAISGSGAVTYYADSVKGRFTISRDNAKNTVYFQMNSLKPEDTAVYYCAKKLYWREGRYDYWGQGTQVTVSS”, the “polyreactivity (PSR sort gate)” value is listed as “high polyreactivity”.
As for “QVQLVESGGGLVQAGGSLRLTCAASGYTFGHYAMGWYRQAPGKERELVAVITSGGSTNYADSVKGRFTISRDNAKNTVYLQMNSLKPEDTAVYYCAADLYFYYVWIRDYWGQGTQVTVSS”, the entry is “low polyreactivity”.
Under “QVQLVESGGGLVQAGGSLRLTCAASGYTFGKYAMGWYREAPGKERELVATIRSGGSTNYADSLKGRFTISRDNAKNTVYLQMNSLKPEDTAVYYCNKRYRYEYGYDYWGQGTLVTVSS” stands “high polyreactivity”; under “QVQLVESGGGLVQAGGSLRLTCAASGYTFVIYSMVWYRQAPGKVRELVAAITTIGGRTYYADSVKGRFTISRDNAKNTVYLQMNSLKPEDTAVYYCAADIRSNRLYDGGYWRQGTQVTVSS”, “low polyreactivity”; under “QVQLVESGGGLVQAGGSLRLTCAASGYTFYSYAMGWYRQAPGKERELVAAIRTGGGTNYADSVKGRFTISRDNAMNTVYLQMNSLKPEDTAVYYCAADSFDPAGHVDYWGQGTQVTVSS”, “low polyreactivity”.
As for “QVQLVESGGGLVQAGGSLRLTCAASRRIFSYYAMGDYIQATGKERELVADINWSGGSTYYADSVKGRFTISRDNAKNTFYLQMNSLKPEDTAVYYCAVDWTSAYGTYYYTPYDSWGQGTQVTVSS”, the entry is “low polyreactivity”.
“QVQLVESGGGLVQAGGSLRLTCADSGNILLFNAMGWYRQAPGKERELVATINQSGGRTYYADSVKGRFTISRDNAKNTVYLQMNSLKPEDTAVYYCNAERHPYYYWHTQRLDYWGQGTQVTVSS”: the “polyreactivity (PSR sort gate)” value is recorded as “low polyreactivity”.
Under “QVQLVESGGGLVQAGGSLRLTCADSGSIFYYYGMGWYRQAPGKERELVASITQSGVSTYYADSVKGRFTISRDNANNSVYLQMNSLKPEYTAVYYCAAGTVSGVDYWGQGTQVTVSS” stands “high polyreactivity”; under “QVQLVESGGGLVQAGGSLRLTCAPSGRIFTRNTMGSYRQAPGKERELVAAISTGASTYYADSVKGRFTISRDNATNSVYLQMNSLKPEVTAVYYCATRGYARYWGLGTQVTVSS”, “low polyreactivity”.
As for “QVQLVESGGGLVQAGGSLRLTCASSGRIYVVNAMGWYRQAPGKEMELVADIYRSGGSTYYADSVKGRFTISRDYAKNTVYLQMNSLKPEDTAVYYCAAEDWPSSPSAPGFDYDYWGQATQVTVSS”, the entry is “low polyreactivity”; as for “QVQLVESGGGLVQAGGSLRLTCDASGITFRLYAMGWSRQAPGKETELVARITDRGSTYYADSVKGRFTISRDNAKNTVYLQMNSLKPEDTAVYYCAARGYRGLVQLRYGYWGQGTQVTVSS”, “high polyreactivity”; as for “QVQLVESGGGLVQAGGSLRLTCDASGITYYGYAIGWSRQAPGKEREWVAGINNGGSTTYADSVKGRFTISRDNAKITVYLQMNSVKPEDTAVYYCAADPVYLNKLLYYVGQAYYYWGQGTQVTVSS”, “high polyreactivity”.
Under “QVQLVESGGGLVQAGGSLRLTCDASGSTFYIYAMGWYRQAPGKERELVARISGSCGSTYYADSVKGRFTISRDNAKNTVYLQMNSLKPEETAVYDCASDDIYKNYQYYAFPYYRYDYWGQGTQVTVSS” stands “low polyreactivity”.
“QVQLVESGGGLVQAGGSLRLTCSASGIILYYYAMGWNRQAPGKERELVAAISSSGGSTYYADSVKGRFTFSRDNAKNTVYLQMKSLKPEDTAVYYCAAWVVPLRYAYGRLTYNYWGQGTQVTVSS”: the “polyreactivity (PSR sort gate)” value is on record as “high polyreactivity”.
As for “QVQLVESGGGLVQAGGSLRLTSADSGRTLYNYAMRWYRQAPGKERELVAGISSAGSTNYADSVKGRFTISRDNAKNTVYLQMNSLKPEDTAVYYCNAVLRRRWVTFYYWGQGPQVTVSS”, the entry is “high polyreactivity”; as for “QVQLVESGGGLVQAGGSLRLTSAGSGSTFSYYTMGWYRQAPGKERELVATIRSTGSTTYADSVKGRFTISRDNVKNTVYLQMNSLKPEDTAVYFCAARSRWGGYIHTGYDYWGQGTQVTVSS”, “low polyreactivity”.
As for “QVQLVESGGGLVQAGGSLRLTWAATGSIFRTNAMGSYRPAPGKERELVAAITGSGGSTYYADSVKGRFTISRYNAKNTVYLQMNCLKPEETAVYYCAAEFGSFVSPYNYYYWGQGTQVTVSS”, the entry is “low polyreactivity”.
As for “QVQLVESGGGLVQAGGSLRSSCAASGSLFTSNTMGWHRQAPGKERELVAAITSSGGSMFYADSVKGRFTISRDNAKNTVYLQMNSLKPEDNAVYYCAADTIGYHDWYDYWGQGTQVTVSS”, the entry is “low polyreactivity”.
Regarding “QVQLVESGGGLVQAGGSLRVSCAASGFIFGDYAMGWYRQAPGKERELVAAINRGASTYYADSVKGRFTISRDNAKNTVYLQMNSLKPEDTAVYYCAAAGYSRGGRGGYWGQGTHVTVSS”, the “polyreactivity (PSR sort gate)” value is listed as “high polyreactivity”.
As for “QVQLVESGGGLVQAGGSLRVSCAASGFIFPGNAMGWYRQAPGKERELVAAISNSGSRTYYADSVKGRFTISRDNAKNTVYLQMNSLKPEDTAVYYCNADVHNRGWPYDYWGQGTQVTVSS”, the entry is “low polyreactivity”.
As for “QVQLVESGGGLVQAGGSLRVSCAASGFIFYGYTMGWYREAPGKERELVARISRRGGSTYYADSVKGRFTISRDNAKNTVYLQMNSLKPEDTAVYYCATRALGHFDWGQGTQVTVSS”, the entry is “low polyreactivity”; as for “QVQLVESGGGLVQAGGSLRVSCAASGFTFSDYAMGWYRQAPGKESELVAGISSGGSTNYADSVKGLFTISRDNAKNTVYLQMNSLKPDDTAVYYCAADLYATWSYFFTWLDYWGQGTQVTVSS”, “high polyreactivity”.
As for “QVQLVESGGGLVQAGGSLRVSCAASGGIFGLYTMGWYRQAPGTERELVAGISKRGTRTRYADSVKGRFTISRDNAKNTVYLQMNSLKPDDTAVYYCNADYYVSKLDDWGQGTQVTVSS”, the entry is “high polyreactivity”.
With “QVQLVESGGGLVQAGGSLRVSCAASGGILRGYAMGWYRQARGKEWELVAAISRGGRTNYADSVKGRFTISRDNAKNTVYLQMNSLKPEDTAVYYCAKRYARGENDYWGQGTQVTVSS”, the “polyreactivity (PSR sort gate)” value is “high polyreactivity”.
As for “QVQLVESGGGLVQAGGSLRVSCAASGIIFDGNAMGWYRQAPGKERELVAAITASGGSTHYADSVKGRFTISRDNAKNTVYLQMNSLKPEDTAVYYCNKRSRTTGDYDYWGQGTHVTVSS”, the entry is “low polyreactivity”.
Under “QVQLVESGGGLVQAGGSLRVSCAASGIIFGSYPMGWYRQAPGTERELVATISFSGGTTNYADSVKGRFPISRDNATTPVYLQMNSLTPEDTAVYYCAARPAPATGKLDYWGQGTQETVSS” stands “low polyreactivity”.
Take “QVQLVESGGGLVQAGGSLRVSCAASGITFAYYAMGWYRHAPGKDRELVAAITRRGSSTYYADSVKGRFTISRDNAKNTVYLQMNSLKPEATAVYYCAAVAYGRERYDYWGPGTQVTVSS”: the “polyreactivity (PSR sort gate)” value is “high polyreactivity”.
On to “QVQLVESGGGLVQAGGSLRVSCAASGLILAYYDMGWYRQAPGKERELVASITGSGGDTYYADSVKGRFTISRDNAKNTVYLQMNSLKPEDTAVYYCAAEYRNVYWIFGVDYWGQGTQVTVSS”, for which the “polyreactivity (PSR sort gate)” value is on record as “low polyreactivity”.
As for “QVQLVESGGGLVQAGGSLRVSCAASGNTFYYTMGWYLQAPGKERELVATISYDGTSTYYADSVKGRFTISRDNAKNTVYLQKNSLKPEDTAVYYSSAYGTVVTLNDYWGQGTQVTVSS”, the entry is “low polyreactivity”; as for “QVQLVESGGGLVQAGGSLRVSCAASGRIFPFYAMGWYRQAAGKERELVAAISWNGGSTFYADSVKGRFTSSRDNANNTVYLQMHRLKPEDNAVYYCNADFRPAYTYDYWGQGTQVTVSS”, “low polyreactivity”.
As for “QVQLVESGGGLVQAGGSLRVSCAASGRIFYPYAMGWYRQAPGKERELVAAIRRSGVDTYYADSVKGRFTISRDNAKNTVYLQMNSLKPEDTAVYYCDADPYWFFPHYDSWGQGTQVTVSS”, the entry is “low polyreactivity”; as for “QVQLVESGGGLVQAGGSLRVSCAASGRIVWPNTMGWSRQAPGKERELVAAISWSGGSTYYADSVKGRFTISRDNAKNTVYLHRNSLKPEHTAVYSCAKRPPHYSWPKIIDFGSWGQGTQVTVSS”, “high polyreactivity”.
Under “QVQLVESGGGLVQAGGSLRVSCAASGSIFDSNAMGWYRQAPGKERELVASITSSGGSTYYADSVKGRFTISRDNAKNTVYLQMNSLKPEDTAVYYCAKRAWTGYGYYYWGQGTQVTVSS” stands “high polyreactivity”.
“QVQLVESGGGLVQAGGSLRVSCAASGSTFPPSAMGWYREAPGKERELGAAIDWSDGTTYYADSVKGRFTISRDYAKNTVYLQMNSLKPEDTAVYYCAADPVLDEYDYWGQGTQVTVSS”: the “polyreactivity (PSR sort gate)” value was “low polyreactivity”.
As for “QVQLVESGGGLVQAGGSLRVSCAASGSTFVYYAMGWYRQAPGKERELVAAITASGGGTYYADSVKGRFTISRDNAKNTVYLQMNSLKPEDTAVYYCNRGYDYWGQGTQVTVSS”, the entry is “low polyreactivity”; as for “QVQLVESGGGLVQAGGSLRVSCAASGSTFYEYAMGWYRQAPGKERELVAAITRGGTTYYADSVKGRFTISRDNAKNTDYYQMNSLKPEDTAVYYCAARTRGFTKLGYWGQGTQVTVSS”, “high polyreactivity”; as for “QVQLVESGGGLVQAGGSLRVSCAASGTTFPRNAMGWYRQAPGKERELVATITSAGGGTYYADSVKGRFTISRDNAKNSVYLQMNSLKPEDTAVYYCNADGPAGDAFDSWGQGTQVTVSS”, “low polyreactivity”.
Under “QVQLVESGGGLVQAGGSLRVSCAASGYTFDLYAMGWYRQAPGKERELVADISSGGSTNYADSVKGRFTISRDNAKNTVYLQMNSLKPEDTAVYYCAVDADRTLFGQYYVSEYGGGYWGQGTQVTVSS” stands “low polyreactivity”; under “QVQLVESGGGLVQAGGSLSFSCAASGNTFYRNAMGWYSQAPGKERELVAAITFSTVRTYYADSVKGRFTISRDNAKNTVYLQMNSLKPEDTAVYYCNKLYRGTWAKENGYWGQGTQVTVSS”, “high polyreactivity”; under “QVQLVESGGGLVQAGGSLSISCAASGRTFYAYAMGWYRQAPGTERELVASIDKSGGSTYYADSVKGRFTISRRIRRYRLFTDEQPETGRYRCLLLRCWCVVLSDFQFWGDFDYDYWGQGTQVTVSS”, “low polyreactivity”.
Under “QVQLVESGGGLVQAGGSLSISCASSGRNFGANAMGLYRQAPGKERELVAVITGGGGTYYADSVKGRFTISRDNAKNTVYLQMNSLKPEDTAVYYCDWPRYYYTYPSHPMDYWGQGTQVTVSS” stands “low polyreactivity”.
